Experimental data: publication PMC12698191 (Molecular cell, 2025)

B1: purified human SWELL1 (homo-hexamer) (natural protein)
chain: MIPVTELRYFADTQPAYRILKPWWDVFTDYISIVMLMIAVFGGTLQVTQDKMICLPCKWVTKDSCNDSFRGWAAPGPEPTYPNSTILPTPDTGPTGIKYDLDRHQYNYVDAVCYENRLHWFAKYFPYLVLLHTLIFLACSNFWFKFPRTSSKLEHFVSILLKCFDSPWTTRALSETVVEESDPKPAFSKMNGSMDKKSSTVSEDVEATVPMLQRTKSRIEQGIVDRSETGVLDKKEGEQAKALFEKVKKFRTHVEEGDIVYRLYMRQTIIKVIKFILIICYTVYYVHNIKFDVDCTVDIESLTGYRTYRCAHPLATLFKILASFYISLVIFYGLICMYTLWWMLRRSLKKYSFESIREESSYSDIPDVKNDFAFMLHLIDQYDPLYSKRFAVFLSEVSENKLRQLNLNNEWTLDKLRQRLTKNAQDKLELHLFMLSGIPDTVFDLVELEVLKLELIPDVTIPPSIAQLTGLKELWLYHTAAKIEAPALAFLRENLRALHIKFTDIKEIPLWIYSLKTLEELHLTGNLSAENNRYIVIDGLRELKRLKVLRLKSNLSKLPQVVTDVGVHLQKLSINNEGTKLIVLNSLKKMANLTELELIRCDLERIPHSIFSLHNLQEIDLKDNNLKTIEEIISFQHLHRLTCLKLWYNHIAYIPIQIGNLTNLERLYLNRNKIEKIPTQLFYCRKLRYLDLSHNNLTFLPADIGLLQNLQNLAITANRIETLPPELFQCRKLRALHLGNNVLQSLPSRVGELTNLTQIELRGNRLECLPVELGECPLLKRSGLVVEEDLFNTLPPEVKERLWRADKEQA
B2: purified human PSA (shorter isoform) (enzyme, UniProt P55786-1 45-919, looked up)
chain: MPEKRPFERLPADVSPINYSLCLKPDLLDFTFEGKLEAAAQVRQATNQIVMNCADIDIITASYAPEGDEEIHATGFNYQNEDEKVTLSFPSTLQTGTGTLKIDFVGELNDKMKGFYRSKYTTPSGEVRYAAVTQFEATDARRAFPCWDEPAIKATFDISLVVPKDRVALSNMNVIDRKPYPDDENLVEVKFARTPVMSTYLVAFVVGEYDFVETRSKDGVCVRVYTPVGKAEQGKFALEVAAKTLPFYKDYFNVPYPLPKIDLIAIADFAAGAMENWGLVTYRETALLIDPKNSCSSSRQWVALVVGHELAHQWFGNLVTMEWWTHLWLNEGFASWIEYLCVDHCFPEYDIWTQFVSADYTRAQELDALDNSHPIEVSVGHPSEVDEIFDAISYSKGASVIRMLHDYIGDKDFKKGMNMYLTKFQQKNAATEDLWESLENASGKPIAAVMNTWTKQMGFPLIYVEAEQVEDDRLLRLSQKKFCAGGSYVGEDCPQWMVPITISTSEDPNQAKLKILMDKPEMNVVLKNVKPDQWVKLNLGTVGFYRTQYSSAMLESLLPGIRDLSLPPVDRLGLQNDLFSLARAGIISTVEVLKVMEAFVNEPNYTVWSDLSCNLGILSTLLSHTDFYEEIQEFVKDVFSPIGERLGWDPKPGEGHLDALLRGLVLGKLGKAGHKATLEEARRRFKDHVEGKQILSADLRSPVYLTVLKHGDGTTLDIMLKLHKQADMQEEKNRIERVLGATLLPDLIQKVLTFALSEEVRPQDTVSVIGGVAGGSKHGRKAAWKFIKDNWEELYNRYQGGFLISRLIKLSVEGFAVDKMAGEVKAFFESHPAPSAERTIQQCCENILLNAAWLKRDAESIHQYLLQRKASPPTV

Tests used:
Test in all cases: cryo-EM structure
[1] = molecular target: B2
cryo-EM structure = molecular target: the molecule itself
[2] = molecular target: B1

Row | binding result [1] | stoichiometry N [2] | Binder | stoichiometry N (cryo-EM structure)
1 | binds |  | B1 | 6
2 |  | 3 PSA molecules per SWELL1 hexamer | B2 | 
